Data from patent US10654911.

Target: recombinant FVIII (Prospec Bio) (UniProt P00451)
Test: ELISA: vWF-Fc variant coated on the plate, recombinant FVIII at 0-4000 pM, detected with sheep anti-FVIII polyclonal antibody and HRP secondary antibody

Sequence of UniProt P00451 (P00451 other isoform, or with tags, fused parts or gaps limits assumed): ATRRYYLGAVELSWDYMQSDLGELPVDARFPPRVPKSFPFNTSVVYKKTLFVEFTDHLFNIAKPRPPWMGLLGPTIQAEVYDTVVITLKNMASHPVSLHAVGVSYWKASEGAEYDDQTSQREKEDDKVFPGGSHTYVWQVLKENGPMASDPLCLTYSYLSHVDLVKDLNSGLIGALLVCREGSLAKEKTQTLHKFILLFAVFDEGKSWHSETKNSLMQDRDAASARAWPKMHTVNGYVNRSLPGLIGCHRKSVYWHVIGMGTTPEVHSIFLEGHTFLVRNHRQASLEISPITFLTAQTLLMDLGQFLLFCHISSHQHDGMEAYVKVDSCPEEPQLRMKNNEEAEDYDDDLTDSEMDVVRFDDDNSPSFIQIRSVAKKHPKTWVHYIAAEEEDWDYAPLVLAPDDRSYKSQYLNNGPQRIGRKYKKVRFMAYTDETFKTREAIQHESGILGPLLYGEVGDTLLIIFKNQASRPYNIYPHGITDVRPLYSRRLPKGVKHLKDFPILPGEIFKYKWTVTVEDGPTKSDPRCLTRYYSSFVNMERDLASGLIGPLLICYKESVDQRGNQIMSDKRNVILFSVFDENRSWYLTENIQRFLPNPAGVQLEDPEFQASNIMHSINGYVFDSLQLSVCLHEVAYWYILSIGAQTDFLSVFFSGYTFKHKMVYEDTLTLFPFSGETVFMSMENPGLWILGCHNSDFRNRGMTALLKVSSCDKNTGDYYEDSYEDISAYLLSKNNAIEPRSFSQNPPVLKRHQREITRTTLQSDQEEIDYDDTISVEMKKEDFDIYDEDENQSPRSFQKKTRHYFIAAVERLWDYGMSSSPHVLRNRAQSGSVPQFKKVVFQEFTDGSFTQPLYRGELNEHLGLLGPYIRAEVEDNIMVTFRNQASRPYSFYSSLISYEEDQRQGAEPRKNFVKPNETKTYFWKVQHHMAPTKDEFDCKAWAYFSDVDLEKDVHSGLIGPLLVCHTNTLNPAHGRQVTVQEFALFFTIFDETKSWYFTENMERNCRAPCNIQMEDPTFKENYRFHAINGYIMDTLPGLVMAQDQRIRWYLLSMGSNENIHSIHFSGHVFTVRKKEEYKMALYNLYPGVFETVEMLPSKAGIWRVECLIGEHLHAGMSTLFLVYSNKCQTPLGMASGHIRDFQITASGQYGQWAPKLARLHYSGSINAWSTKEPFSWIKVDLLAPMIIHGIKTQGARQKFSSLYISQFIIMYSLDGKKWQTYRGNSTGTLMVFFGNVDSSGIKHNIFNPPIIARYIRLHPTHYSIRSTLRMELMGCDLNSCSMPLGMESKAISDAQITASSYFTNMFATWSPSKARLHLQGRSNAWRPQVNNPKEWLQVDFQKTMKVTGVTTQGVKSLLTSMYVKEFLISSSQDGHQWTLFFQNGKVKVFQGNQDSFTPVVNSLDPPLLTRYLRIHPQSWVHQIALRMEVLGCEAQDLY

Pro-D′D3-Fc (Fc fusion)
Kd: 0.5 nM
